{"source": "paper PMC10936425", "key": {"[1]": {"target": "K2-2 (phage tailspike protein, K2 capsular polysaccharide depolymerase), wild type with an N-terminal His-tag (not stated (bacteriophage of Klebsiella pneumoniae, phage not named))", "test": "SEC-MALS; 100 microgram protein in 20 mM Tris pH 8.0, 100 mM NaCl, 0.02% NaN3; ENrich SEC 650 column, 0.5 ml/min"}, "[2]": {"target": "K2-2 (phage tailspike protein, K2 capsular polysaccharide depolymerase), wild type with an N-terminal His-tag (not stated (bacteriophage of Klebsiella pneumoniae, phage not named))", "test": "crystal structure; N-terminally His-tagged K2-2 (wild type, and E323A soaked with 10 mM hydrolyzed K2 CPS products for 18 h); crystallised at 15°C, 0.1 M Bicine pH 9.0, 22% PEG-6000; space groups P2(1) and C2"}, "[3]": {"target": "K2-2 S424A mutant (not stated (bacteriophage of Klebsiella pneumoniae, phage not named))", "test": "SEC-MALS; 100 microgram protein in 20 mM Tris pH 8.0, 100 mM NaCl, 0.02% NaN3; ENrich SEC 650 column, 0.5 ml/min"}, "[4]": {"target": "K2-2 E323A mutant (not stated (bacteriophage of Klebsiella pneumoniae, phage not named))", "test": "crystal structure; N-terminally His-tagged K2-2 (wild type, and E323A soaked with 10 mM hydrolyzed K2 CPS products for 18 h); crystallised at 15°C, 0.1 M Bicine pH 9.0, 22% PEG-6000; space groups P2(1) and C2"}, "[5]": {"target": "K2-2 D515A mutant (not stated (bacteriophage of Klebsiella pneumoniae, phage not named))", "test": "SEC-MALS; 100 microgram protein in 20 mM Tris pH 8.0, 100 mM NaCl, 0.02% NaN3; ENrich SEC 650 column, 0.5 ml/min"}, "[6]": {"target": "K2-2 with a C-terminal His-tag (K2-2^C-His) (not stated (bacteriophage of Klebsiella pneumoniae, phage not named))", "test": "SEC-MALS; 100 microgram protein in 20 mM Tris pH 8.0, 100 mM NaCl, 0.02% NaN3; ENrich SEC 650 column, 0.5 ml/min"}, "[7]": {"target": "K2-2 with a C-terminal His-tag (K2-2^C-His) (not stated (bacteriophage of Klebsiella pneumoniae, phage not named))", "test": "crystal structure; K2-2^C-His crystallised at 15°C, 0.1 M Bicine pH 9.0, 10% PEG-4000, 10% polyacrylic acid 2100 sodium salt; Se-MAD phasing; space group P6(3)"}}, "note": "Several values for one entry are separate records, joined by “and”; a condition that tells them apart may be missing. Identical values can stand only once."}
{"substance": "K2-2 (phage tailspike protein, K2 capsular polysaccharide depolymerase), wild type with an N-terminal His-tag (enzyme)", "values": [{"measurement": "stoichiometry N", "setting": "[1]", "value": 3}, {"measurement": "stoichiometry N", "setting": "[2]", "value": 3}]}
{"substance": "K2-2 S424A mutant (enzyme)", "values": [{"measurement": "stoichiometry N", "setting": "[3]", "value": 3}]}
{"substance": "K2-2 E323A mutant (enzyme)", "values": [{"measurement": "stoichiometry N", "setting": "[4]", "value": 3}]}
{"substance": "K2-2 D515A mutant (enzyme)", "values": [{"measurement": "stoichiometry N", "setting": "[5]", "value": 2}]}
{"substance": "K2-2 with a C-terminal His-tag (K2-2^C-His) (enzyme)", "values": [{"measurement": "stoichiometry N", "setting": "[6]", "value": "4 and 3"}, {"measurement": "stoichiometry N", "setting": "[7]", "value": 4}]}
